Consider 34 variants from the supplement of paper PMC6755084.

B1: F1*; the commonest letter at each place (parent)
chain: GAGACCGCAACTGAAAAGTTGTTATCACTTGTCGTAAGACACTTTGGATGGGTTGAAGTTCTGCACGTAGAAGCAAAAGGC

The variants in the data set derive from B1. Kind of data set: fraction ligated after 30 min (ligated reads / total reads); higher = more ligase activity. The conditions noted are these: with F1*sub RNA substrate (template-directed ligation), 42 °C. How it is done:
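Chip-synthesised pool of F1* ligase ribozyme variants (all single and double substitutions, single, double and triple deletions in the catalytic core and GAA bulge, plus designed variants) was transcribed with T7 and reacted as a pool with excess substrate F1*sub for 30 min at 42 C in 50 mM EPPS pH 8.5, 25 mM MgCl2. Ligated and unligated bands were separated by PAGE, barcoded by RT and deep sequenced; fraction ligated = ligated reads / total reads per variant, relative activity = FL / FL of wild type (0.826). Sequences are the DNA template of the ribozyme.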
Turning to GAGACCGCAACTGAAAAGTTGTTATCACTTGTCGTAAGACAGTTTGGTTGGGTTGAAGTTCTGCACGTAGAAGCAAAAGGC [C42G A48T], the fraction ligated is 0.792.

Turning to GAGACCGCAACTGAAAAGTTGTTATCACTTGTCATAAGACACTTAGGATGGGTTGAAGTTCTGCACGTAGAAGCAAAAGGC [G34A T45A], the fraction ligated came to 0.797.

On to GAGACCGCAACTGAAAAGTTGTTATCACTTTTCGTAAGACACTTTCGATGGGTTGAAGTTCTGCACGTAGAAGCAAAAGGC [G31T G46C], for which the fraction ligated was 0.681.

Take GAGACCGCAACTGAAAAGTTGTTATCACATGTCGTATGACACTTTGGATGGGTTGAAGTTCTGCACGTAGAAGCAAAAGGC [T29A A37T]: the fraction ligated was found to be 0.848.

GAGACCGCAACTGAAAAGTTGTTATCACTGGTCGTAAGACACCTTGGATGGGTTGAAGTTCTGCACGTAGAAGCAAAAGGC [T30G T43C]: the fraction ligated was found to be 0.794.

Take GAGACCGCAACTGAAAAGTTGTTATCACTTGTCGTAAGACACTTTGGCTGGGTTGGAGTTCTGCACGTAGAAGCAAAAGGC [A48C A56G]: the fraction ligated is 0.283.

In the case of GAGACCGCAACTGAAAAGTTGTTATCACTTGACGTAAGACACTTTGGATGGGTTGACGTTCTGCACGTAGAAGCAAAAGGC [T32A A57C], the fraction ligated was found to be 0.821.

Turning to GAGACCGCAACTGAAAAGTTGTTATCACTTGCCGTAAGACACTTTGGATCGGTTGAAGTTCTGCACGTAGAAGCAAAAGGC [T32C G50C], the fraction ligated stood at 0.0903.

GAGACCGCAACTGAAAAGTTGTTATCACTTGTCGTAAGGCACTTTGGATGGGTTAAAGTTCTGCACGTAGAAGCAAAAGGC [A39G G55A]: the fraction ligated amounted to 0.844.

Take GAGACCGCAACTGAAAAGTTGTTATCACTTGTCGTAAGTCACTTTTGATGGGTTGAAGTTCTGCACGTAGAAGCAAAAGGC [A39T G46T]: the fraction ligated was determined as 0.771.

For GAGACCGCAACTGAAAAGTTGTTATCACTTGTGGTAAGACAGTTTGGATGGGTTGAAGTTCTGCACGTAGAAGCAAAAGGC [C33G C42G], the fraction ligated stood at 0.853.

GAGACCGCAACTGAAAAGTTGTTATCACTTGTCATAAGACACTTTGGATGGGTTGATGTTCTGCACGTAGAAGCAAAAGGC [G34A A57T]: the fraction ligated came to 0.822.

Regarding GAGACCGCAACTGAAAAGTTGTTATCACTTGTCGTAAGACACTTTAGATGGGTTCAAGTTCTGCACGTAGAAGCAAAAGGC [G46A G55C], the fraction ligated amounted to 0.224.

On to GAGACCGCAACTGAAAAGTTGTTATCGCTTTTCGTAAGACACTTTGGATGGGTTGAAGTTCTGCACGTAGAAGCAAAAGGC [A27G G31T], for which the fraction ligated amounted to 0.791.

For the variant GAGACCGCAACTGAAAAGTTGTTATCTCTTGCCGTAAGACACTTTGGATGGGTTGAAGTTCTGCACGTAGAAGCAAAAGGC [A27T T32C], the fraction ligated stood at 0.755.

Turning to GAGACCGCAACTGAAAAGTTGTTATCACTGGTCGGAAGACACTTTGGATGGGTTGAAGTTCTGCACGTAGAAGCAAAAGGC [T30G T35G], the fraction ligated came out at 0.847.

Take GAGACCGCAACTGAAAAGTTGTTATCACTTGTCGTAAGACACTTTGGTTGGGTTGACGTTCTGCACGTAGAAGCAAAAGGC [A48T A57C]: the fraction ligated came out at 0.68.

Take GAGACCGCAACTGAAAAGTTGTTATCACATATCGTAAGACACTTTGGATGGGTTGAAGTTCTGCACGTAGAAGCAAAAGGC [T29A G31A]: the fraction ligated was 0.844.

Turning to GAGACCGCAACTGAAAAGTTGTTATCACTTGTCATAAGACACATTGGATGGGTTGAAGTTCTGCACGTAGAAGCAAAAGGC [G34A T43A], the fraction ligated came out at 0.836.

Take GAGACCGCAACTGAAAAGTTGTAATCACTGGTCGTAAGACACTTTGGATGGGTTGAAGTTCTGCACGTAGAAGCAAAAGGC [T23A T30G]: the fraction ligated is 0.803.

For GAGACCGCAACTGAAAAGTTGTTATCACTTCTCGTAGGACACTTTGGATGGGTTGAAGTTCTGCACGTAGAAGCAAAAGGC [G31C A37G], the fraction ligated was determined as 0.817.

As for GAGACCGCAACTGAAAAGTTGTTATCACTTGTCGTAGGACACTTTGGATGGGTTGAGGTTCTGCACGTAGAAGCAAAAGGC [A37G A57G], the fraction ligated was 0.859.

For the variant GAGACCGCAACTGAAAAGTTGTTACCACTTGTCGTAAGGCACTTTGGATGGGTTGAAGTTCTGCACGTAGAAGCAAAAGGC [T25C A39G], the fraction ligated came to 0.786.

On to GAGACCGCAACTGAAAAGTTGTTATCACTTCTCGTAAGACATTTTGGATGGGTTGAAGTTCTGCACGTAGAAGCAAAAGGC [G31C C42T], for which the fraction ligated was determined as 0.786.

As to GAGACCGCAACTGAAAAGTTGTTATCACTTGTCTTAAGACACTTTTGATGGGTTGAAGTTCTGCACGTAGAAGCAAAAGGC [G34T G46T], the fraction ligated was found to be 0.763.

In the case of GAGACCGCAACTGAAAAGTTGTTATCACTTGTGGTAATACACTTTGGATGGGTTGAAGTTCTGCACGTAGAAGCAAAAGGC [C33G G38T], the fraction ligated came out at 0.837.

Consider GAGACCGCAACTGAAAAGTTGTTATCAGTTGTCGTAAGCCACTTTGGATGGGTTGAAGTTCTGCACGTAGAAGCAAAAGGC [C28G A39C], for which the fraction ligated is 0.759.

Consider GAGACCGCAACTGAAAAGTTGTTATCACTTGTCGTATGACACTTTGGATGGGTTGTAGTTCTGCACGTAGAAGCAAAAGGC [A37T A56T], for which the fraction ligated was 0.83.

On to GAGACCGCAACTGAAAAGTTGTTATCACGTGTCGTAAGACACTTTGGATGGGTTCAAGTTCTGCACGTAGAAGCAAAAGGC [T29G G55C], for which the fraction ligated worked out at 0.584.

Consider GAGACCGCAACTGAAAAGTTGTTATCATTTGTCGTAAGACACTTTGGAAGGGTTGAAGTTCTGCACGTAGAAGCAAAAGGC [C28T T49A], for which the fraction ligated is 0.743.

As for GAGACCGCAACTGAAAAGTTGTTATCACTTGTGGAAAGACACTTTGGATGGGTTGAAGTTCTGCACGTAGAAGCAAAAGGC [C33G T35A], the fraction ligated came out at 0.872.

For GAGACCGCAACTGAAAAGTTGTCATCACTTGTCGTAAGACACTTTGGTTGGGTTGAAGTTCTGCACGTAGAAGCAAAAGGC [T23C A48T], the fraction ligated was determined as 0.0663.

In the case of GAGACCGCAACTGAAAAGTTGTTATCACTTGTCGTAAGACACTCTGCATGGGTTGAAGTTCTGCACGTAGAAGCAAAAGGC [T44C G47C], the fraction ligated was 0.0629.

With GAGACCGCAACTGAAAAGTTGTTATCGCTTGTCGTAAGACACTTGGGATGGGTTGAAGTTCTGCACGTAGAAGCAAAAGGC [A27G T45G], the fraction ligated stood at 0.217.
